Results published in US20260234242A1 (HAINAN SIMCERE ZAIMING PHARMACEUTICAL, published 2026).

Tests used:
[1] = biological target: T1, human CDH6 on tumor cells (OVCAR3 cells, PA-1 cells) (human, UniProt P55285 54-790); experiment: FACS, PA-1 cells
T1 sequence: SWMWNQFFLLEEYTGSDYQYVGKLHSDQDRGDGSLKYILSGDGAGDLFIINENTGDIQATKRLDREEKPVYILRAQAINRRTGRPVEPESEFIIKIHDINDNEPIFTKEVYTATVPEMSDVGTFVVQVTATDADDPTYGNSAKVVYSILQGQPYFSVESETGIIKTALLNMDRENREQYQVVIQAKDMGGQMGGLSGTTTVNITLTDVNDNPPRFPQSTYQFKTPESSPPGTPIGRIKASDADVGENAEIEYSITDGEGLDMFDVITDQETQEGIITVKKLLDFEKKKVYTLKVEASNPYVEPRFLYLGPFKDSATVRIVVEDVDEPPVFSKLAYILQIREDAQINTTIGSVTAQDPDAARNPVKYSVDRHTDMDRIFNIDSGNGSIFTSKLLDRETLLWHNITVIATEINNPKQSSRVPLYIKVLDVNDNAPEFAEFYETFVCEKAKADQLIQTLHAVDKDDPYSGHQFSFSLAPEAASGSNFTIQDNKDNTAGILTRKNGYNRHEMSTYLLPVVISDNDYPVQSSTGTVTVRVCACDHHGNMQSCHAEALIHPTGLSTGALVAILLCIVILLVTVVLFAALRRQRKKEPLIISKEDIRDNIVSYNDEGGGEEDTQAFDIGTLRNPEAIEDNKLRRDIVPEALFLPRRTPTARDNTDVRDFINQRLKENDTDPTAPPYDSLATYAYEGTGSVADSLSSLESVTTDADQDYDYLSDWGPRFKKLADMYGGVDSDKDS
Procedure: OVCAR3 cells with high expression of CDH6 and PA-1 cells with moderate expression of CDH6 were used to detect the binding activity of the antibodies to the cells. […] The cells were washed once with PBS, counted, resuspended to 2×10⁶ cells/mL in an FACS buffer (PBS+2% FBS), and then added to a 96-well plate at 50 μL/well. The chimeric antibodies were diluted with FACS buffer (PBS+2% FBS) and added to the 96-well plate at 50 μL/well, and the plate was incubated at 4° C. for 1 h. […] The dilution was added to the 96-well plate at 50 μL/well, and the plate was incubated at 4° C. for 1 h. After the plates were centrifuged and washed 2 times with PBS, the cells were resuspended in an FACS buffer. The mean fluorescence intensity (MFI) was measured using FACS Canton II (BD). Analysis was performed by the GraphPad Prism software, data were fitted, and EC50 values were calculated. The chimeric antibodies tested had strong binding to both OVCAR3 cells and PA-1 cells.
According to the above sequences, heavy chain (HC) and light chain (LC) plasmids were constructed (the nucleic acid sequences encoding the VH and VL of the antibodies were recombined into an expression vector carrying a signal peptide (SEQ ID NO: 132, […]) and a heavy chain constant region/light chain constant region sequence to obtain recombinant plasmids expressing VH-CH1-Fc/VL-CL). According to the expression and purification methods in Example 2, the hCDH6-14 humanized antibodies were obtained, and the binding activity of the humanized antibodies was detected by ELISA and FACS (see 2.2 and 2.3 for the method).

[2] = biological target: T2, his-tagged human CDH6 extracellular region protein (hCDH6 ECD-his) (human, UniProt P55285 19-615); experiment: ELISA, coated antigen
T2 construct: also called Human CDH6-his; hCDH6-his; not shown: his tag
T2 sequence: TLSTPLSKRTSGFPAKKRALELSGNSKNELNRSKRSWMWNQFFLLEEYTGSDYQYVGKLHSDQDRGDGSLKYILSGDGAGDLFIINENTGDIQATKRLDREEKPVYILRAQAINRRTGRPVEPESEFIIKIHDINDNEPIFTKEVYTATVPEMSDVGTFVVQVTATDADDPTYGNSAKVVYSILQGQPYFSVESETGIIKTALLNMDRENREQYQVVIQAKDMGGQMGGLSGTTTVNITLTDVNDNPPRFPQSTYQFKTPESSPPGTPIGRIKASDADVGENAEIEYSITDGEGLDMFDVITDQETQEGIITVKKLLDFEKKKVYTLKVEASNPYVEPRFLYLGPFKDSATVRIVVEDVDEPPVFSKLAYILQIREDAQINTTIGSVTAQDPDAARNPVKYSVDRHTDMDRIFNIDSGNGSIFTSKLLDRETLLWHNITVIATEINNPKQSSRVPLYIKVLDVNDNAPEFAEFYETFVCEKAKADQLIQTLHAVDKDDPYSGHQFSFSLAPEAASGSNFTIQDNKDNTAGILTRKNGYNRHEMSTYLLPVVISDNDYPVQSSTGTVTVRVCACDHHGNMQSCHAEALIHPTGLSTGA

[3] = biological target: T1, human CDH6 on tumor cells (OVCAR3 …); experiment: FACS, OVCAR3 cells, 4° C. arm of endocytosis assay
Procedure: OVCAR3 cells were cultured until a confluence of 90% was reached, the medium was removed by pipetting, the cells were washed once with PBS, and then treated with an enzyme-free cell dissociation solution (Versene, purchased from Gibco, Cat. No. 15040-066) and the cells were collected. The cells were washed once with PBS, counted, resuspended to 2×10⁶ cells/mL in an FACS buffer (PBS+2% FBS), and then added to two 96-well plates at 50 μL/well. The chimeric antibodies were diluted with FACS buffer (PBS+2% FBS) to 10 μg/mL and separately added to the two 96-well plates at 50 μL/well, and the plates were incubated at 4° C. for 1 h. After the cells were washed 3 times with PBS, the cells were resuspended in an FACS buffer. One 96-well plate was incubated at 4° C. for 1 h, and the other 96-well plate was incubated at 37° C. for 1 h. […] After the plates were centrifuged and washed 2 times with PBS, the cells were resuspended in an FACS buffer. The mean fluorescence intensity (MFI) was measured using FACS Canton II (BD). The chimeric antibodies tested all had good endocytic activity.
Some of the antibodies were selected for the endocytic activity assay, and the method for assaying the endocytic activity of the humanized antibodies in OVCAR3 cells was the same as that in 2.4. The humanized antibodies tested all had good endocytic activity.

B1: hCDH6-14-H6L3 (antibody, V domains shown)
VH: EVQLVQSGAEVKKPGASVKVSCKASGYTFTDNYINWVRQAPGQRLEWMGWIYPGTGNSYYNEKFKGRVTITVDTSASTAYMELSSLRSEDTAVYLCASSYGDSFDYWGQGTTVTVSS
VL: DIVMTQSPDSLAVSLGERATINCRASQDIRNYLNWYQQKPGQTPKLLISYTSRLHSGVPDRFSGSGSGTDFTLTISSLQAEDVAVYYCQQYSQLPWTFGGGTKVEIK
notes: Humanized
EC50 [1]: 250 pM | Max MFI [1]: 3890 MFI | EC50 [2]: 62 pM | Max OD450 [2]: 2.72 OD450 | MFI_4° C. [3]: 16100 MFI
